Reference: the nanobody polyreactivity screen of Harvey et al. (2022)

Assay: yeast display, Sf9 membrane polyspecificity reagent, FACS + sequencing; frameworks hold sequencing errors
Summary of the method: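 Nanobodies from a synthetic yeast display library (Saccharomyces cerevisiae BJ5465), induced 36–48 hours with galactose, were stained 1 hour at 4 °C with 10% biotinylated, detergent-solubilized Sf9 membrane reagent, enriched on streptavidin microbeads, then FACS-sorted. Anti-HA (expression) and streptavidin (reagent binding) fluorescence set low and high (top ~1%) gates. Polyreactivity labels come from the gate of origin. Genes were colony-PCR amplified, MiSeq 2 × 250 sequenced and filtered by CDR length.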

| Sequence | polyreactivity (PSR sort gate) |
| --- | --- |
| QVQLVESGGGLVQAGGSLRLSCAASGSIMVRYAMGWYRQAPGKERELVAAITSGGSTYADSVKGRFTISRDNAKNTVYLQMNSLKPEDTAVYYCARDYFNREAFDYWGQGTQVTVSS | low polyreactivity |
| QVQLVESGGGLVQAGGSLRLSCAASGSIMYVYAMGWYRQAPGKERELVAVITSGGSTNYAESVKGRFTISRDNAKNTVFLQMNSLKPEDTAVYYCAADPYSVYGGDYWGQGTQVTVSS | low polyreactivity |
| QVQLVESGGGLVQAGGSLRLSCAASGSINELYAKGWYRQAPGKERELVASITWRGGSTYYADSVKGRFTISRDNAKNTVYLQMNSLKPEDTAVYDCAADVPTASGTYDYWGQGTQVTVSS | low polyreactivity |
| QVQLVESGGGLVQAGGSLRLSCAASGSINYYAMGWYRQAPGKERELVAAITGSGGSTYYADSVKGRFTISRDNAKNTVYLQMNSLITEDTSVYYCAARYGYIYGPYYYWGQGTQVTVST | high polyreactivity |
| QVQLVESGGGLVQAGGSLRLSCAASGSINYYAMGWYRQAPGKERELVAAITGSGGSTYYADSVKGRFTISRDNAKNTVYLQMNSLKPEDTAVYYCAARYGYIYGPYYYWGQGTQVTVSS | high polyreactivity |
| QVQLVESGGGLVQAGGSLRLSCAASGSIQVYYAMGWYRQAPGKERELVAAISSGGSTNYADSVKGRFTISRDNAKNTVYLQMNSLKPEDTAVYYCAKESGWVGAIHYDYWGQGTQVTVSS | low polyreactivity |
| QVQLVESGGGLVQAGGSLRLSCAASGSIRGYAMGWYRQAPGKERELVAAISWRGGSTYYADSVKGRFTISRDNAKNTVYLQMNSLKPEDTAVYYCAAADGIIESDYWGQGTQVTVSS | low polyreactivity |
| QVQLVESGGGLVQAGGSLRLSCAASGSIRYYVMGWYRQAPGKERELVAGINWSGGSTYYADSVKGRFTISRDNAKNTVYLQMNSLKPEDTAVYYCAARFVGVRDGYYYWGQGTQVTVSS | high polyreactivity |
| QVQLVESGGGLVQAGGSLRLSCAASGSISADYVMGWYRQAPGKDRELVAAISVSAGTTYYADSVKGRFTISRDNAKNTVYLQMNSLKPEDTAVYYCAATDSYYWLYYYGYSPGNDYWGQGTQVTVSS | low polyreactivity |
| QVQLVESGGGLVQAGGSLRLSCAASGSISDVYAMGSYRQAPGKETELVAAITSGASTYYADSVKGRFTISRDNAKNTVYLQMNSLKPEDTAVYYCAADSDSQWGMDYWGQGTQVTVSS | low polyreactivity |
| QVQLVESGGGLVQAGGSLRLSCAASGSISFLYTMGWYRQAPGKERELVAAITGSTASTYYADSVKGCFTISRDNAKNTVYLQMNSLKPEDTAVYYCAAYWYAEGYWVSRDYWGQGTQVTVSS | low polyreactivity |
| QVQLVESGGGLVQAGGSLRLSCAASGSISGSYAMGWYRQAPGKERELVASITTSGGGTYYADSVKGRFTISRDNAKNTVYLQMNSLKPEDTAVYYCAVEYGYPYAGLDYWGQGTQVTVSS | low polyreactivity |
| QVQLVESGGGLVQAGGSLRLSCAASGSISGYYARGWYRQAPGKERELVASIRYTGARTYYADSVKGRFTISRDNAKYTVYVQMNSLKPEDTAVYYCAATEFTYYYSYDYWGQGTLVTVSS | low polyreactivity |
| QVQLVESGGGLVQAGGSLRLSCAASGSISIQYVMGWYRPAPGKERELVAAIRVIGGSTSYADSVKGRFTISRDNAKNTVYLQMNSLKPEDTAVYYCAADWAWTISDGYYYGYPQYDYWGQGTQVTVSS | high polyreactivity |
| QVQLVESGGGLVQAGGSLRLSCAASGSISPQNVMGWYRQAPGKERELVAAITGGGSTNYADSVKGRFTISRDNAKNTVYLQMNSLKPEDTAVYYCNADYFQDRLDYWGHGTQVTVSS | low polyreactivity |
| QVQLVESGGGLVQAGGSLRLSCAASGSISPWYAMGWYRQAPGKERELVAAIRGNGGSTYYADSVKGRFTISRDNAKNTVYLQMNSLKPEDTAVYYCNAVYRRPIFYYWGQGTQVTVSS | low polyreactivity |

| Sequence | polyreactivity (PSR sort gate) |
| --- | --- |
| QVQLVESGGGLVQAGGSLRLSCAASGSISPYNAKGWYRQAPGKERELVAAISSGGRTYYAVSVKGRFTISRDNAKNTVYLQMNSLKPEDTAVYYCNKYPLRPYRGLGVYYRSDYWGQGTQVTVSS | high polyreactivity |
| QVQLVESGGGLVQAGGSLRLSCAASGSISPYNAMGWYRQAPGKERELVAAISSGGRTYYADSVKGRFTISRDNAKNTVYLQMNSLKPEDTAVYYCARGYWRVYGYSFWYTPEVGYWGQGTQVTVSS | high polyreactivity |
| QVQLVESGGGLVQAGGSLRLSCAASGSISPYYAMGWYRQEHGKEREMVAAISSGGSTYYADSVKGRFTISRDNAKNTVYLQMNSLKPEDTAVYYCAKAYNYLGYYKYLRYGKFCYWGEGTQVTVSS | high polyreactivity |
| QVQLVESGGGLVQAGGSLRLSCAASGSISSAYGMGWYIQAPGKERELVATITSGGSTNYADSVKGRFTISRDNAKNTVYLQMNSLTPEDTAVYYCAVDRYALYSGGDYWGQGTQVTVSS | low polyreactivity |
| QVQLVESGGGLVQAGGSLRLSCAASGSISSNAMGWYRQAPGKERELVAAISGSVGSTYYADSVKGRFTISRDNAKNTVYLQMNSLKREDTAVYYCAADAEAGRYVYGASSELGYDYWGQGTQVTVSS | low polyreactivity |
| QVQLVESGGGLVQAGGSLRLSCAASGSISSQYGMGWYRQAAGKERDLVATIRDGGRTNYADSVKGRFTISRDNGKNTVYLQMNSLKPEDTAVYYCAALYWYYYTWPLYDYWVQGTQVTVSS | low polyreactivity |
| QVQLVESGGGLVQAGGSLRLSCAASGSISVANAMGWYRQAPGKERELVAAITDSGDDTYYADSVKGRFTISRDNAKNTVYLQMNSLKPEDTAVYYCAVEAWSVPPYDYWGQGTQVTVSS | low polyreactivity |
| QVQLVESGGGLVQAGGSLRLSCAASGSISVWYVMGWYRQAPGKERELVAAITRSGGSTFYADSVKGRLTISRDNAKNTVYLQMNSLKPEDTAVYYCAADVGVAWGYGYWGQGTQVTVSS | low polyreactivity |
| QVQLVESGGGLVQAGGSLRLSCAASGSISYFNAMGWYRQAPGKERELVAAITSGGSTYYADSVKGRFTISRDNAKNTVYLQMNSLKPEDTAVYYCNAPLEWGVYAAQNWDDGYWGQGTQVTVSS | low polyreactivity |
| QVQLVESGGGLVQAGGSLRLSCAASGSISYRYAMGWYRQAPGKERELVAAISYRGGTTYYADSVKGRFTISRDNAKNTVYLQMNSLKPEDTAVYYCADDFFGSSYPFYYWGQGTQVTVSS | high polyreactivity |
| QVQLVESGGGLVQAGGSLRLSCAASGSISYSYAMGWYRQAPGKERELVAAISWRGVSTYYADSVKGRFTISRDNAKNTVYLQMNSLKPEDTAVYYCNAVHHYPEHIGGGYWGQGTQVTVSS | low polyreactivity |
| QVQLVESGGGLVQAGGSLRLSCAASGSISYYAMGWYRQAPGKEMELVAAISQSGGSTYYADSVKGRFTISRDNAKNTVYLQMNSLKPEDTAVYYCAAKSPYSSYYPYGYWGQGTQVTVSS | high polyreactivity |
| QVQLVESGGGLVQAGGSLRLSCAASGSISYYNAMGWYRQAPGKERELVATITDSGGSTYYADSVKGRFTISRDNAKNTVYLQMNSLKPEDTAVYYCAVDYSEWYSIYDYWGQGTQVTVSS | low polyreactivity |
| QVQLVESGGGLVQAGGSLRLSCAASGSISYYNAMGWYRQAPGKERELVATITDSGGSTYYADSVKGRFTISRDNAKNTVYLQMNSLKPEDTAVYYCNADYWAVNYDYWGQGSQVTVSS | low polyreactivity |
| QVQLVESGGGLVQAGGSLRLSCAASGSIVRFYAMGWYRQAPGKERELVASITSGGSTNYADSVKGRFTISRDNAKNTVYLQMNSLKPEDTAVYYCAVRLKGYRRRDYWGQGTQVTVSS | high polyreactivity |
| QVQLVESGGGLVQAGGSLRLSCAASGSIVRSYAMGWYRQAPGKERELVAAITGGANTYYADSVKGRFTISRDNAKNTVYLQMNSLKPEDTAVYYCAASPIQTGSIFSTFYSYRSYYWGQGTQVTVSS | high polyreactivity |
